This note sets out measurements from patent US8053186 (OHIO STATE UNIVERSITY RESEARCH FOUNDATION, dated 2011).

To fix the notation:
B1: Drosha (endogenous, immunoprecipitated from SEMK2 or PER377 nuclear extracts) (enzyme, human, UniProt Q9NRR4 1-1374, looked up)
chain: MMQGNTCHRMSFHPGRGCPRGRGGHGARPSAPSFRPQNLRLLHPQQPPVQYQYEPPSAPSTTFSNSPAPNFLPPRPDFVPFPPPMPPSAQGPLPPCPIRPPFPNHQMRHPFPVPPCFPPMPPPMPCPNNPPVPGAPPGQGTFPFMMPPPSMPHPPPPPVMPQQVNYQYPPGYSHHNFPPPSFNSFQNNPSSFLPSANNSSSPHFRHLPPYPLPKAPSERRSPERLKHYDDHRHRDHSHGRGERHRSLDRRERGRSPDRRRQDSRYRSDYDRGRTPSRHRSYERSRERERERHRHRDNRRSPSLERSYKKEYKRSGRSYGLSVVPEPAGCTPELPGEIIKNTDSWAPPLEIVNHRSPSREKKRARWEEEKDRWSDNQSSGKDKNYTSIKEKEPEETMPDKNEEEEEELLKPVWIRCTHSENYYSSDPMDQVGDSTVVGTSRLRDLYDKFEEELGSRQEKAKAARPPWEPPKTKLDEDLESSSESECESDEDSTCSSSSDSEVFDVIAEIKRKKAHPDRLHDELWYNDPGQMNDGPLCKCSAKARRTGIRHSIYPGEEAIKPCRPMTNNAGRLFHYRITVSPPTNFLTDRPTVIEYDDHEYIFEGFSMFAHAPLTNIPLCKVIRFNIDYTIHFIEEMMPENFCVKGLELFSLFLFRDILELYDWNLKGPLFEDSPPCCPRFHFMPRFVRFLPDGGKEVLSMHQILLYLLRCSKALVPEEEIANMLQWEELEWQKYAEECKGMIVTNPGTKPSSVRIDQLDREQFNPDVITFPIIVHFGIRPAQLSYAGDPQYQKLWKSYVKLRHLLANSPKVKQTDKQKLAQREEALQKIRQKNTMRREVTVELSSQGFWKTGIRSDVCQHAMMLPVLTHHIRYHQCLMHLDKLIGYTFQDRCLLQLAMTHPSHHLNFGMNPDHARNSLSNCGIRQPKYGDRKVHHMHMRKKGINTLINIMSRLGQDDPTPSRINHNERLEFLGDAVVEFLTSVHLYYLFPSLEEGGLATYRTAIVQNQHLAMLAKKLELDRFMLYAHGPDLCRESDLRHAMANCFEALIGAVYLEGSLEEAKQLFGRLLFNDPDLREVWLNYPLHPLQLQEPNTDRQLIETSPVLQKLTEFEEAIGVIFTHVRLLARAFTLRTVGFNHLTLGHNQRMEFLGDSIMQLVATEYLFIHFPDHHEGHLTLLRSSLVNNRTQAKVAEELGMQEYAITNDKTKRPVALRTKTLADLLESFIAALYIDKDLEYVHTFMNVCFFPRLKEFILNQDWNDPKSQLQQCCLTLRTEGKEPDIPLYKTLQTVGPSHARTYTVAVYFKGERIGCGKGPSIQQAEMGAAMDALEKYNFPQMAHQKRFIERKYRQELKEMRWEREHQEREPDETEDIKK
notes: Endogenous protein in nuclear extracts, not a purified recombinant construct; also called nuclear RNase III enzyme; SEMK2 Drosha

For test [1], the target named is T1, normal p300 All1 (endogenous) (human, UniProt Q03164 1-2718, limits assumed).
T1 construct: also called normal All1
Kind of test: co-immunoprecipitation with anti-Drosha Ab from nuclear extracts, Western blot. On the procedure: (§1) FIG. 2A) Western blot detection of immunoprecipitated proteins. […] For unambiguous identification of Drosha, recombinant Drosha exogenously expressed in K562 cells transfected with pCK-Drosha-Flag plasmid was purified by IP (Drosha:FLAG). 20 μg nuclear extracts of leukemic cells or around 2.5 μg of immuno-purified Drosha were used in the analysis. Note that endogenous Drosha was purified from nuclear extracts while Drosha:FLAG was from whole cell lyzate.
(§2) K562 cells were transfected with pCK-drosha-flag by using a Nucleofector apparatus according to the manufacturer's instructions (AMAXA). 2 ×10^8 transfected cells were lysed and subjected to IP with anti-Flag M2 mAb as described in ref. 11. Briefly, 25 mg whole cell lysate were incubated with 500 μg mAb after preclearing with protein G Sepharose (GE Healthcare) at 4° C., O/N. Immunocomplex was precipitated with protein G Sepharose, washed, and the Drosha:FLAG in the precipitate was eluted by adding 3×FLAG peptide at a concentration of 0.4 mg/ml in a buffer containing 30 mM Hepes, pH7.4/100 mM KCl/5% Glycerol/0.2 mM EDTA/7.5 mM MgCl_2/2 mM DTT. Elution was repeated three times, each for 30 min at RT, and eluates were combined. For immunoprecipitation of endogenous Drosha, 50 mg of nuclear extracts from SEMK2 or PER377 cells prepared by the method of Dignam et al. (19) were subjected to IP with 300 μg of anti-Drosha Ab. […]
On the technique in general: Immunoblotting shows a protein as a band on a membrane.

For test [2], the target named is B1. Kind of test: co-IP with anti-Drosha Ab, Western blot. On the procedure: as §1, §2

T1 sequence (Q03164 1-2718 limits assumed): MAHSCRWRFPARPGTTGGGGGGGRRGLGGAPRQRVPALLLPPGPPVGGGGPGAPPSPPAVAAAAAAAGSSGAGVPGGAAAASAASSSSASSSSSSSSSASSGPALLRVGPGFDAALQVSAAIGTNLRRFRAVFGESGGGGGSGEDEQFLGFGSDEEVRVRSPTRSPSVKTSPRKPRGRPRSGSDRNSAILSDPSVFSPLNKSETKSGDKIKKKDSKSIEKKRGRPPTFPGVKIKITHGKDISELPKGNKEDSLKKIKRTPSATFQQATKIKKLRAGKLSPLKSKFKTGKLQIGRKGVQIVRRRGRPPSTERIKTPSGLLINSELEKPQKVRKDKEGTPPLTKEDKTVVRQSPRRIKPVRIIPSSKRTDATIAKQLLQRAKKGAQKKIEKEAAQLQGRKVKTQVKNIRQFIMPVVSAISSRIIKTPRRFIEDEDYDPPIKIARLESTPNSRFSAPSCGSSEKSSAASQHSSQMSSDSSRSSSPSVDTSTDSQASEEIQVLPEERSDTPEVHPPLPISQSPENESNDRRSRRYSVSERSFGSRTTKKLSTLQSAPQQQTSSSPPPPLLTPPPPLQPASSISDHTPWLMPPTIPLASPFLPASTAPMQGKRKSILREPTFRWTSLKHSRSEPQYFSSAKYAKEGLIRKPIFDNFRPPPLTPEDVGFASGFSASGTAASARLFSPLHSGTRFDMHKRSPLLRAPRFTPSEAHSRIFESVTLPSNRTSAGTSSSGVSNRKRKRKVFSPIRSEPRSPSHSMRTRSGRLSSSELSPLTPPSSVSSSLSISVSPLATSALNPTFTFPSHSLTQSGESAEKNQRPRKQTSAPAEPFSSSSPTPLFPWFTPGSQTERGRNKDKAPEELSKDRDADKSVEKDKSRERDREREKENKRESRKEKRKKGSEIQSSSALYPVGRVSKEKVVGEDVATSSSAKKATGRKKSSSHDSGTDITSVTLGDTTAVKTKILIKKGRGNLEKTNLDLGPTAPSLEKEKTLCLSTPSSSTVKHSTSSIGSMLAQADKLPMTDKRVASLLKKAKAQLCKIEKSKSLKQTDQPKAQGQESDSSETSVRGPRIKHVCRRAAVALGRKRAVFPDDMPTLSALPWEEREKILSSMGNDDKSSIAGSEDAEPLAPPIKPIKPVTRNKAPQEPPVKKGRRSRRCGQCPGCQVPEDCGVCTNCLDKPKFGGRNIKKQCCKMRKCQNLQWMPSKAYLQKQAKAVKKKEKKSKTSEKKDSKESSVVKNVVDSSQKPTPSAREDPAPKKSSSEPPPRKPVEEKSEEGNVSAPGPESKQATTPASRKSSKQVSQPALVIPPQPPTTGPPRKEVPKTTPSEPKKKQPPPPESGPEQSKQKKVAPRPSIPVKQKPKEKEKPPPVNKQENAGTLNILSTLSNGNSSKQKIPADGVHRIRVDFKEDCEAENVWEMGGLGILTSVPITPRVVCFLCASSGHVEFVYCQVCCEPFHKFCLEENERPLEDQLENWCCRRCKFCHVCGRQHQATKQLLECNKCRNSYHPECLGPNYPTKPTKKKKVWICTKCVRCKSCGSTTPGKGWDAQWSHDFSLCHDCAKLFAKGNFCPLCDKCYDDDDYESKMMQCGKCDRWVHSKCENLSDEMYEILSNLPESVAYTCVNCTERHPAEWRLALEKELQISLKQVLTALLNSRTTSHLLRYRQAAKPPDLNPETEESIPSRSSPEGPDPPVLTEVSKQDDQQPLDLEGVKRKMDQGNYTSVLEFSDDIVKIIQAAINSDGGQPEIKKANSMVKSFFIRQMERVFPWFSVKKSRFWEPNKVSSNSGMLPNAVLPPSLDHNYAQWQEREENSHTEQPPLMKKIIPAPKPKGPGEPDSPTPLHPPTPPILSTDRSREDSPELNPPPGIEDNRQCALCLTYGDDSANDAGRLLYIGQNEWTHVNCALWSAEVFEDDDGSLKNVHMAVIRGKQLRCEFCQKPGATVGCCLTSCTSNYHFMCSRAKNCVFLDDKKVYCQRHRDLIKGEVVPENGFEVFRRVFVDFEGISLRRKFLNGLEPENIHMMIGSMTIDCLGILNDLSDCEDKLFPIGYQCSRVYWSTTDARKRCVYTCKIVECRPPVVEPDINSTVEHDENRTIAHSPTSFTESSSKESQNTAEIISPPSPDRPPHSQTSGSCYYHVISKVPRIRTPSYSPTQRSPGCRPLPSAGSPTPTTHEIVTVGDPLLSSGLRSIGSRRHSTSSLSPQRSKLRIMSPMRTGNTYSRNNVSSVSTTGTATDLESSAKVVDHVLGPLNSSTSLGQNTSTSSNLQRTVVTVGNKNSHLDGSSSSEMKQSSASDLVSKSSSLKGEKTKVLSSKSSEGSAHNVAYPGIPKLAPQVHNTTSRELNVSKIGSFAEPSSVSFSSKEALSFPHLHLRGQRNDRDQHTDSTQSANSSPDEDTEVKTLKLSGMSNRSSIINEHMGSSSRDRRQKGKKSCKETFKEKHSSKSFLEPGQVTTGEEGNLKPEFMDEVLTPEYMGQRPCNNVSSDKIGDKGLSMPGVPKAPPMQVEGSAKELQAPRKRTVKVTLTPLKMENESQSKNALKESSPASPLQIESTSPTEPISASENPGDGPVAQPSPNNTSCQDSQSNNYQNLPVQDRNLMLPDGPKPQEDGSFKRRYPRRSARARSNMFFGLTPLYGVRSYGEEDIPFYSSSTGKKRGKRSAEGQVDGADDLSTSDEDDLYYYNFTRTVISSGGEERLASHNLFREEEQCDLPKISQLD

Take B1: in test [1], the binding result was “no binding”.

B2: DGCR8 (endogenous) (other, human, UniProt Q8WYQ5 1-773, looked up)
chain: METDESPSPLPCGPAGEAVMESRARPFQALPREQSPPPPLQTSSGAEVMDVGSGGDGQSELPAEDPFNFYGASLLSKGSFSKGRLLIDPNCSGHSPRTARHAPAVRKFSPDLKLLKDVKISVSFTESCRSKDRKVLYTGAERDVRAECGLLLSPVSGDVHACPFGGSVGDGVGIGGESADKKDEENELDQEKRVEYAVLDELEDFTDNLELDEEGAGGFTAKAIVQRDRVDEEALNFPYEDDFDNDVDALLEEGLCAPKKRRTEEKYGGDSDHPSDGETSVQPMMTKIKTVLKSRGRPPTEPLPDGWIMTFHNSGVPVYLHRESRVVTWSRPYFLGTGSIRKHDPPLSSIPCLHYKKMKDNEEREQSSDLTPSGDVSPVKPLSRSAELEFPLDEPDSMGADPGPPDEKDPLGAEAAPGALGQVKAKVEVCKDESVDLEEFRSYLEKRFDFEQVTVKKFRTWAERRQFNREMKRKQAESERPILPANQKLITLSVQDAPTKKEFVINPNGKSEVCILHEYMQRVLKVRPVYNFFECENPSEPFGASVTIDGVTYGSGTASSKKLAKNKAARATLEILIPDFVKQTSEEKPKDSEELEYFNHISIEDSRVYELTSKAGLLSPYQILHECLKRNHGMGDTSIKFEVVPGKNQKSEYVMACGKHTVRGWCKNKRVGKQLASQKILQLLHPHVKNWGSLLRMYGRESSKMVKQETSDKSVIELQQYAKKNKPNLHILSKLQEEMKRLAEEREETRKKPKMSIVASAQPGGEPLCTVDV
For B2, in test [2], the binding result was “binds”.
